Biological target: mCherry^N-gp418^N chimeric protein

gp418^C-mCherry^C chimeric protein
concurrent in situ splicing in a four-strain E. coli co-culture: mCherry fluorescence (580 nm excitation-610 nm emission) of the purified protein mixture: 35000 a.u.
